1 molecule from patent US20170137467A1 (CHROMOTEK, published 2017) can be followed below.

Square brackets hold non-standard residues; d marks the D form. GABA = NCCCC(=O)O

Test in all cases: peptide library pulldown on immobilized Nb, LC-MS of supernatant; ratio vs GFP-Nb control (1 = not captured, 0 = captured)
The target in experiment [1] is T1, BC2T H9F library peptide (human).
T1 peptide: Ac-PDRKAAVSFWQQ-NH2
The gist of the method:
(§1)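 Unbound peptide left in supernatant after 1 h pulldown in PBS/0.01% CHAPS measured by reversed-phase LC-MS (8–30% eluent B gradient, 20 min).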

The target in experiment [2] is T2, BC2T W10Y library peptide (human).
T2 construct: also called BC2TW10X: Y
T2 peptide: Ac-PDRKAAVSHYQQ-NH2
The gist of the method: as §1

Experiment [3] addresses T3, BC2T H9Q library peptide (human).
T3 peptide: Ac-PDRKAAVSQWQQ-NH2
The gist of the method: as §1

For experiment [4], the target named is T4, BC2T H9G library peptide (human).
T4 peptide: Ac-PDRKAAVSGWQQ-NH2
A digest of the protocol: as §1

Experiment [5] concerns the target T5, BC2T W10K library peptide (human).
T5 construct: also called BC2TW10X: K
T5 peptide: Ac-PDRKAAVSHKQQ-NH2
A digest of the protocol: as §1

The target of experiment [6] is T6, BC2T Q12(I/L) library peptide, version 1 (N-terminal acetyl, C-terminal amide).
T6 construct: Ile and Leu versions are isobaric; two versions resolved but not assigned; also called I/L1
A digest of the protocol:
as §1

The target of experiment [7] is T7, BC2T Q12D library peptide (human).
T7 peptide: Ac-PDRKAAVSHWQD-NH2
A digest of the protocol:
as §1

Experiment [8] deals with T8, BC2T S8H library peptide (human).
T8 construct: also called BC2TS8X: H
T8 peptide: Ac-PDRKAAVHHWQQ-NH2
A digest of the protocol:
as §1

The target of experiment [9] is T9, BC2T H9W library peptide (human).
T9 peptide: Ac-PDRKAAVSWWQQ-NH2
A digest of the protocol: as §1

Experiment [10] concerns the target T10, BC2T Q11E library peptide (human).
T10 peptide: Ac-PDRKAAVSHWEQ-NH2
A digest of the protocol:
as §1

The target in experiment [11] is T11, BC2T Q12T library peptide (human).
T11 peptide: Ac-PDRKAAVSHWQT-NH2
The gist of the method: as §1

Experiment [12] deals with T12, BC2T H9C* library peptide (human, SMILES …).
T12 construct: also called C(Abu)
T12 peptide: Ac-PDRKAAVS[GABA]WQQ-NH2
A digest of the protocol:
as §1

Experiment [13] has as its target T13, BC2T W10D library peptide (human).
T13 construct: also called BC2TW10X: D
T13 peptide: Ac-PDRKAAVSHDQQ-NH2
A digest of the protocol: as §1

Experiment [14] addresses T14, BC2T S8T library peptide (human).
T14 construct: also called BC2TS8X: T
T14 peptide: Ac-PDRKAAVTHWQQ-NH2
A digest of the protocol:
as §1

Experiment [15] has as its target T15, BC2T Q12H library peptide (human).
T15 peptide: Ac-PDRKAAVSHWQH-NH2
The gist of the method: as §1

For experiment [16], the target named is T16, BC2T Q12F library peptide (human).
T16 peptide: Ac-PDRKAAVSHWQF-NH2
A digest of the protocol:
as §1

For experiment [17], the target named is T17, BC2T W10(I/L) library peptide, version 2 (N-terminal acetyl, C-terminal amide).
T17 construct: Ile and Leu versions are isobaric; two versions resolved but not assigned; also called BC2TW10X: I/L2
A digest of the protocol:
as §1

Experiment [18] deals with T18, BC2T Q11K library peptide (human).
T18 peptide: Ac-PDRKAAVSHWKQ-NH2
The gist of the method: as §1

The target of experiment [19] is T19, BC2T H9Y library peptide (human).
T19 peptide: Ac-PDRKAAVSYWQQ-NH2
A digest of the protocol:
as §1

For experiment [20], the target named is T20, BC2T Q12V library peptide (human).
T20 peptide: Ac-PDRKAAVSHWQV-NH2
The gist of the method: as §1

B1: BC2-Nb(R106E) (VHH)
VHH: QVQLVESGGGLVQPGGSLTLSCTASGFTLDHYDIGWFRQAPGKEREGVSCINNSDDDTYYADSVKGRFTIFMDNAKDTVYLQMNSLKPEDTAIYYCAEARGCKRGEYEYDFWGQGTQVTVSS
notes: Headlock mutant; immobilized on beads in the library pulldown
Take B1: the ratio in [1] was found to be 0.2; in experiment [2], 1; in [3], 0.3; in experiment [4], 0.7; in experiment [5], 1.3; in experiment [6] it was 0.1. In addition, the ratio stood at 0.8 in [7]; 0.9 in [8]; 0.1 in experiment [9]; 0.4 in [10]; 0.1 in [11]; 0.3 in experiment [12]. In addition, the ratio is 1.1 in [13]; 0.1 in experiment [14]; 0.1 in experiment [15]; 0.3 in [16]; 1 in experiment [17]; 0.1 in experiment [18]. Besides, the ratio in experiment [19] and in [20] was 0.1 throughout.
